Source: patent publication US7786083B2, “Metastin derivatives and use thereof” (Takeda Pharmaceutical Company Limited, priority 2006, dated 2010)
[ ]: non-standard residue; d: D form. Arg(Me) = CNC(=N)NCCC[C@H](N)C(=O)O; Dap(CONH2) = NC(=O)NC[C@H](N)C(=O)O; Ala(cPr) = N[C@@H](CC1CC1)C(=O)O; Hyp = O=C(O)[C@@H]1C[C@@H](O)CN1; Cha = N[C@@H](CC1CCCCC1)C(=O)O; Aib = CC(C)(N)C(=O)O

B1: des(1)-Ac-[D-Tyr2,Hyp3,Thr5,Cha6,Ala(cPr)8,Arg(Me)9,Trp10]MS10 (peptide)
peptide: Ac-[dY][Hyp]NT[Cha]G[Ala(cPr)][Arg(Me)]W-NH2
SMILES: CNC(=N)NCCC[C@H](NC(=O)[C@H](CC1CC1)NC(=O)CNC(=O)[C@H](CC1CCCCC1)NC(=O)[C@@H](NC(=O)[C@H](CC(N)=O)NC(=O)[C@@H]1C[C@@H](O)CN1C(=O)[C@@H](Cc1ccc(O)cc1)NC(C)=O)[C@@H](C)O)C(=O)N[C@@H](Cc1c[nH]c2ccccc12)C(N)=O

Target: metastin receptor (OT7T175) stably expressed on CHO/dhfr- cells (human or rat, not given)
Experiment: cell-based or functional assay

Specific Activity (EC50 of test compound based on EC50 of Metastin (45-54)); agonist activity, intracellular calcium ion level, FLIPR (ratio to Metastin (45-54))	Binder
1.5	Ac-[dY][Hyp]NTF[Aib]L[Arg(Me)]W-NH2 [des(1)-Ac-[D-Tyr2,Hyp3,Thr5,Aib7,Arg(Me)9,Trp10]MS10]
0.6	Ac-[dY][Hyp][Dap(CONH2)]TFGL[Arg(Me)]W-NH2 (also: Gly6-Leu7 -CONH- replaced by (E)-CH=CH-) [des(1)-Ac-[D-Tyr2,Hyp3,Alb4,Thr5,Gly7Ψ((E)CH═CH)Leu8,Arg(Me)9,Trp10]MS10]
0.6	Ac-[dY][Hyp]NTFGL[Arg(Me)]W-NH2 (also: Gly6-Leu7 -CONH- replaced by (E) CH=CH) [des(1)-Ac-[D-Tyr2,Hyp3,Thr5,Gly7Ψ((E)CH═CH)Leu8,Arg(Me)9,Trp10]MS10]
0.5	Ac-[dY]E[Dap(CONH2)]TFGL[Arg(Me)]W-NH2 (also: Gly6-Leu7 -CONH- replaced by (E) type alkene) [des(1)-Ac-[D-Tyr2,Glu3,Alb4,Thr5,Gly7Ψ((E)CH═CH)Leu8,Arg(Me)9,Trp10]MS10]
0.5	Ac-[dY]ENT[Cha]GL[Arg(Me)]W-NH2 (also: Gly6-Leu7 -CONH- replaced by (E) type alkene) [des(1)-Ac-[D-Tyr2,Glu3,Thr5,Cha6,Gly7Ψ((E)CH═CH)Leu8,Arg(Me)9,Trp10]MS10]
0.5	Ac-[dY]E[Dap(CONH2)]T[Cha]GL[Arg(Me)]W-NH2 (also: Gly6-Leu7 -CONH- replaced by (E) type alkene) [des(1)-Ac-[D-Tyr2,Glu3,Alb4,Thr5,Cha6,Gly7Ψ((E)CH═CH)Leu8,Arg(Me)9,Trp10]MS10]
0.8	Ac-[dY][Hyp]NTFGL[Arg(Me)]W-NH2 (also: Gly6-Leu7 -CONH- replaced by -CH2CH2-) [des(1)-Ac-[D-Tyr2,Hyp3,Thr5,Gly7Ψ(CH2CH2)Leu8,Arg(Me)9,Trp10]MS10]
0.4	Ac-[dY][Hyp][Dap(CONH2)]T[Cha]GL[Arg(Me)]W-NH2 (also: Gly6-Leu7 -CONH- replaced by (E) type alkene) [des(1)-Ac-[D-Tyr2,Hyp3,Alb4,Thr5,Cha6,Gly7Ψ((E)CH═CH)Leu8,Arg(Me)9,Trp10]MS10]
0.6	Ac-[dY][Hyp]NT[Cha]GL[Arg(Me)]W-NH2 (also: Gly6-Leu7 -CONH- replaced by (E)-CH=CH-) [des(1)-Ac-[D-Tyr2,Hyp3,Thr5,Cha6,Gly7Ψ((E)CH═CH)Leu8,Arg(Me)9,Trp10]MS10]
0.6	Ac-[dY]ENTFGL[Arg(Me)]W-NH2 (also: Gly6-Leu7 -CONH- replaced by (E) type alkene) [des(1)-Ac-[D-Tyr2,Glu3,Thr5,Gly7Ψ((E)CH═CH)Leu8,Arg(Me)9,Trp10]MS10]
0.4	Ac-[dY]ENT[Cha]G[Ala(cPr)][Arg(Me)]W-NH2 [des(1)-Ac-[D-Tyr2,Glu3,Thr5,Cha6,Ala(cPr)8,Arg(Me)9,Trp10]MS10]
2.5	Ac-[dY]DNT[Cha]G[Ala(cPr)][Arg(Me)]W-NH2 [des(1)-Ac-[D-Tyr2,Asp3,Thr5,Cha6,Ala(cPr)8,Arg(Me)9,Trp10]MS10]
0.5	B1
